# Experimental data: article PMC6351632
# Target: Fasciola hepatica Sigma class glutathione transferase 1 (Fasciola hepatica)
# Experiment: crystal structure; FhGST-S1 with glutathione (holo/CGL and GSSG complexes), microbatch, 0.15 M KBr, 20% PEG 3350; space group P212121, two subunits forming a dimer related by a molecular dyad
substance,measurement,value
Fasciola hepatica Sigma class glutathione transferase 1 (enzyme),stoichiometry N,2
